Data reported in PMC10977697 (PLOS ONE, 2024).

B3: Notch2NRR (Notch2 NRR domain) (domain or fragment)
chain: ATCLSQYCADKARDGVCDEACNSHACQWDGGDCSLTMENPWANCSSPLPCWDYINNQCDELCNTVECLFDNFECQGNSKTCKYDKYCADHFKDNHCDQGCNSEECGWDGLDCAADQPENLAEGTLVIVVLMPPEQLLQDARSFLRALGTLLHTNLRIKRDSQGELMVYPYYGEKSAAMKKQRMTRRSLPGEQEQEVAGSKVFLEIDNRQCVQDSDHCFKNTDAAAALLASHAIQGTLSYPLVSVVSESLTPERTQ
modifications: biotin on the N-terminal Avi tag (enzymatic)
notes: also called NRR protein; not shown: Avi tag, N-terminal, kept

Legend:
[1] = target: B3; experiment: SPR; conditions: both partners purified
Her3-Fc = Her3-Fc (UniProt P21860 20-643); experiment: ELISA; conditions: one partner purified
[2] = target: T1, Notch2Long (Notch2 EGF6-EGF12) (human, UniProt Q04721 219-418, biotin on the N-terminal Avi tag (enzymatic)); experiment: SPR; conditions: both partners purified
T1 construct: also called N2L protein; hNotch2; not shown: Avi tag, N-terminal, kept
T1 sequence (looked up): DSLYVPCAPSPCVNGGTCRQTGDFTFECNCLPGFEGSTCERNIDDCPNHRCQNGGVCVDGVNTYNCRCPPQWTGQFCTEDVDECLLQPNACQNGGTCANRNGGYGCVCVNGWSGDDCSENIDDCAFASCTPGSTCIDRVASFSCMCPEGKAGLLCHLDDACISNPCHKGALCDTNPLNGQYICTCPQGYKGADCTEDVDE

HtrA1 = target: T2, HtrA1 (human, UniProt Q92743 23-480, biotin on lysines (Sulfo-NHS-LC-biotin) for panning and SPR); experiment: SPR; conditions: both partners purified
T2 construct: also called HtrA1 FL; human full-length HtrA1

N2N-AVR-n6 = target: T3, N2N-AVR-n6; experiment: SPR; conditions: both partners purified
T3 construct: AVR9 scaffold; source: synthetic peptide, folded in vitro

N2N-AVR-19 = target: T4, N2N-AVR-19; experiment: SPR; conditions: both partners purified
T4 construct: AVR9 scaffold; source: synthetic peptide, folded in vitro

PCSK9 [3] = target: T5, PCSK9 (human, UniProt Q8NBP7 31-692, biotin on lysines (Sulfo-NHS-LC-biotin)); experiment: SPR; conditions: both partners purified
T5 construct: also called PCSK9FL; hPCSK9 FL

Her3-Fc Avi-tag = Her3-Fc Avi-tag (UniProt P21860 20-643); experiment: SPR; conditions: both partners purified
[4] = target: T1, Notch2Long (Notch2 EGF6-EGF12); experiment: ELISA; conditions: one partner purified
[5] = target: T1, Notch2Long (Notch2 EGF6-EGF12); experiment: SPR; conditions: both partners purified; remark: listed apart in the source
[6] = target: T6, PCSK9ΔCRD (PCSK9 lacking the C-terminal Cys-rich domain CRD) (human, UniProt Q8NBP7 31-452, biotin on lysines (Sulfo-NHS-LC-biotin)); experiment: ELISA; conditions: one partner purified
T6 construct: also called PCSK9DCRD; PCSK9dCRDTEV

PCSK9 [7] = target: T5, PCSK9; experiment: ELISA; conditions: one partner purified

Sequence of Her3-Fc (P21860 20-643): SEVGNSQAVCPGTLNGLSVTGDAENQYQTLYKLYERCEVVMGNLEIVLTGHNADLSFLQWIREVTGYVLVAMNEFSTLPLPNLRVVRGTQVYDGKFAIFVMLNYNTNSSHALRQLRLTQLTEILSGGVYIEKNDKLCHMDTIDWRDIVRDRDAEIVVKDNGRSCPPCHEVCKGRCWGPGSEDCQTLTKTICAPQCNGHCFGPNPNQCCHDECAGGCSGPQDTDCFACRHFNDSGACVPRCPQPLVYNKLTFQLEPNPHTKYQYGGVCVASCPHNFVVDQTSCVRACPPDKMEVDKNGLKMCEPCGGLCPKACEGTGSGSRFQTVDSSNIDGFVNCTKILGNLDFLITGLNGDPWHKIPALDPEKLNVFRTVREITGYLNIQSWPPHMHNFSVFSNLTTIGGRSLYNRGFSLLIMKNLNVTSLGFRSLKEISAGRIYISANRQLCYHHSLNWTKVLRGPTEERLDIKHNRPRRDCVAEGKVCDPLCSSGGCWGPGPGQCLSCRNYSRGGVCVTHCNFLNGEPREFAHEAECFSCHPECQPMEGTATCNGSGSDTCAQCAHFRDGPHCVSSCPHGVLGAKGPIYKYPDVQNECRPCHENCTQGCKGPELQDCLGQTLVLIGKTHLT
Sequence of Her3-Fc Avi-tag (P21860 20-643): as above
T5 sequence (Q8NBP7 31-692): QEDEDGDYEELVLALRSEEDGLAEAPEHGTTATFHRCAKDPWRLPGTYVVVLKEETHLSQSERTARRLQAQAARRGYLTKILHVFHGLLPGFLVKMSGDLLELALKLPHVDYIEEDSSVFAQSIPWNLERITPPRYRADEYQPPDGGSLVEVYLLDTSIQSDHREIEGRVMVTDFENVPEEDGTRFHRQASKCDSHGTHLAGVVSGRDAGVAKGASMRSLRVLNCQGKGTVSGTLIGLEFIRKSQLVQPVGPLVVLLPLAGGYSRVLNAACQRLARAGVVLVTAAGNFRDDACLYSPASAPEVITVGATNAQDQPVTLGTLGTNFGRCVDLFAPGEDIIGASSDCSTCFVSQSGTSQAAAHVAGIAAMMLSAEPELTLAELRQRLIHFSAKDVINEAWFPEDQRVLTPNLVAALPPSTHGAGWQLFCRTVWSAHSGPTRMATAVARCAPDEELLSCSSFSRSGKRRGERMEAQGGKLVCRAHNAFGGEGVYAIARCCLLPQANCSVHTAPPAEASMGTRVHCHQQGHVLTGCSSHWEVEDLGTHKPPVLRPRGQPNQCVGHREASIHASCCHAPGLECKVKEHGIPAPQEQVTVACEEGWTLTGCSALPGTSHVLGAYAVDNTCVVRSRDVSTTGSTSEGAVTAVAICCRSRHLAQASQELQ
T2 sequence (Q92743 23-480): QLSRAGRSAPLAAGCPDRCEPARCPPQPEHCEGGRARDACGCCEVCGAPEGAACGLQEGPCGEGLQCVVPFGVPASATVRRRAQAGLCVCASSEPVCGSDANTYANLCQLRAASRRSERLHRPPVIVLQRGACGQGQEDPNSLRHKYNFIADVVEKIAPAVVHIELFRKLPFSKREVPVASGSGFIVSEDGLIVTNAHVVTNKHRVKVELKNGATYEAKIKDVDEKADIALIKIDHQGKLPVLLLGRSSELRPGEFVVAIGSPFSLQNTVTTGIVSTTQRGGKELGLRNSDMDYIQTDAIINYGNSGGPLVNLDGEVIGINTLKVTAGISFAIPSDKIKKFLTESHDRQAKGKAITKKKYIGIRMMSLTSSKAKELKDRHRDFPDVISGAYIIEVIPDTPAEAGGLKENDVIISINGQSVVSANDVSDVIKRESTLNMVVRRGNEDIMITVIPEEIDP
T6 sequence (Q8NBP7 31-452, stated change not applied): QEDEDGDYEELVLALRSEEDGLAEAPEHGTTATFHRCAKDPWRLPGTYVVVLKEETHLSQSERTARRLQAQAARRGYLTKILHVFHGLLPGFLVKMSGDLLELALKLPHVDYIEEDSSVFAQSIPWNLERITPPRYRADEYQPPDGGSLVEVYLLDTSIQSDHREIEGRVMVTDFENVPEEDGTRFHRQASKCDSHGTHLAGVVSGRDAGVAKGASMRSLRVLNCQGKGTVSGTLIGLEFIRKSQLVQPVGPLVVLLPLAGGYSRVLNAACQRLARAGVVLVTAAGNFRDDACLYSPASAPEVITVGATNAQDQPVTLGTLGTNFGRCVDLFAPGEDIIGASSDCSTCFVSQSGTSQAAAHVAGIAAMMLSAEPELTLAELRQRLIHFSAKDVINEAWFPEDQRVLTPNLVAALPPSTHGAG

## GCQQRRWGGWQQCKQDSDCLAGCVCGPNGFCG (designed binder) [N2N-EET-33]
[1]
  Kd: 55.6 µM

B1: Her3-Fc_ChTx1 displayed on M13 phage (designed binder)
chain: VSCTTSKECWSVCQRLHNTSWGEQCVTKFCKCEE
notes: Charybdotoxin scaffold; source: M13 phage from E. coli, culture supernatant
Her3-Fc
  ELISA: 1.7
  s/n Ratio: 22.6

B2: Her3-Fc_ChTx2 displayed on M13 phage (designed binder)
chain: VSCTTSKECWSVCQRLHNTSWLGSCMERFCKCVD
notes: as for B1
Her3-Fc
  ELISA: 1.6
  s/n Ratio: 24.3

## GCGQQRWGGWPLCKQDSDCLAGCVCGPNGFCG (designed binder) [N2N-EET-45]
[1]
  Kd: 55.9 µM

## GCRPRWGGWHCKQDSDCLAGCVCGPNGFCG (designed binder) [N2N-EET-57]
[1]
  Kd: 132 µM

## GCMPRYGGWHCKQDSDCLAGCVCGPNGFCG (designed binder) [N2N-EET-63]
[1]
  Kd: 166 µM

## GCRPRFKGWTCKQDSDCLAGCVCGPNGFCG (designed binder) [N2N-EET-n3]
[1]
  Kd: 180 µM

## GCIKSHLWCDPRKDCEAGCICEVWIQCG (designed binder) [N2L.EET31.43.75]
[2]
  Kd: 0.41 µM

## GCGQKRMGGWQWCKQDSDCLAGCVCGPNGFCG (designed binder) [N2N-EET-n13]
[1]
  Kd: 12 µM

## GCHRPWWQLWGLCKQDSDCLAGCVCGPNGFCG (designed binder) [HtrA1_EET76]
HtrA1
  Kd: 9.5 µM

## WIPCISAALGCSCKNKVCYIFSKHLCGESCV (designed binder) [HtrA1_CirA65]
HtrA1
  Kd: 2.7 µM

## WIPCISAALGCSCKNKVCYFLYQICGESCV (designed binder) [HtrA1_CirA38]
HtrA1
  Kd: 2.5 µM

## B3
N2N-AVR-n6
  Kd: 0.8 µM
N2N-AVR-19
  Kd: 9.4 µM

## ACKGVFDACTWKNWRQSRSRECCPNAVCSDKHKWCKWKL (designed binder, Huwentoxin scaffold) [HtrA1_HwTx69]
HtrA1
  Kd: 3.7 µM

## ECKGKGAKCSFMTRQGVQTWCCTGSCRSGKC (designed binder, Conotoxin-MVIIA scaffold) [PCSK9_CnTx2]
PCSK9 [3]
  Kd: 2.8 µM

## ECKGKGAKCSIQWSVYPWKVCCTGSCRSGKC (designed binder, Conotoxin-MVIIA scaffold) [HtrA1_CnTx83]
HtrA1
  Kd: 6.4 µM

## GPTQSKYGMCGGIGYSGPTVCASGTTCQVLDPYTSQCLPGAS (designed binder) [PCSK9FL_CBD2]
PCSK9 [3]
  Kd: 3.6 µM

## GPTQSWQGRCGGIGYSGPTVCASGTTCQVLTPYWSECLPGAS (designed binder, also called Her3_CBD1) [Her3-Fc_CBD1]
Her3-Fc Avi-tag
  Kd: 27 µM

## VSCTTSKECWSVCQRLHNTSWGEQCVTKFCKCEE (designed binder, Charybdotoxin scaffold) [Her3-Fc_ChTx1]
Her3-Fc Avi-tag
  Kd: > 10 µM

## VSCTTSKECWSVCQRLHNTSWLGSCMERFCKCVD (designed binder, Charybdotoxin scaffold) [Her3-Fc_ChTx2]
Her3-Fc Avi-tag
  Kd: 1.5 µM

## GCGWTLRHCKQDSDCLAGCVCRPIWYCG (designed binder) [N2L.EET03.10]
[2]
  Kd: 4.5 µM

## GCIKSHLWCPKTSDCEAGCICEVWIQCG (designed binder) [N2L.EET31.43.24]
[2]
  Kd: 3.5 µM

## GCIRSHVWCKQDSDCEAGCICEIWIQCG (designed binder) [N2L.EET31.43.43]
[2]
  Kd: 3.5 µM

## GCIKSHLWCPRDSDCLAGCVCEVWIQCG (designed binder) [N2L.EET31.32.13]
[2]
  Kd: 35 µM

## GCIRSHLWCPPSASCLAGCVCEVWIQCG (designed binder) [N2L.EET31.32.70]
[2]
  Kd: 1 µM

## GCGWTLAHCKQDSDCLAGCVCQPRWVCG (designed binder) [N2L-EET-29 displayed on M13 phage]
[4]
  ELISA: 0.6
  s/n Ratio: 4.4

## GCGWTLWHCKQDSDCLAGCVCEPIWWCG (designed binder) [N2L-EET-03]
[5]
  Kd: 43.7 µM

## GCGWTLAHCKQDSDCLAGCVCQPRWVCG (designed binder) [N2L-EET-29]
[5]
  Kd: 102 µM

## ECKGKGAKCSFMTRQGVQTWCCTGSCRSGKC (designed binder, Conotoxin-MVIIA scaffold) [PCSK9_CnTx2 displayed on M13 phage]
[6]
  ELISA: 1.7
  s/n Ratio: 25.9

## GPTQSKYGMCGGIGYSGPTVCASGTTCQVLDPYTSQCLPGAS (designed binder) [PCSK9FL_CBD2 displayed on M13 phage]
PCSK9 [7]
  ELISA: 1.9
  s/n Ratio: 26.8

## GPTQSWQGRCGGIGYSGPTVCASGTTCQVLTPYWSECLPGAS (designed binder) [Her3-Fc_CBD1 displayed on M13 phage]
Her3-Fc
  ELISA: 1.7
  s/n Ratio: 20.2
